In general, stoichiometry N refers to the number of molecules, sites or subunits per partner or assembly.

The target in this experiment is Tat13-Strep-Tactin (HIV-1 | Streptomyces avidinii). The experiment can be described thus: SDS-PAGE of tetramers after heating.

Tat13-Strep-Tactin (designed binder): the stoichiometry N was 4.

The record behind these values is article PMC3823275.
